Measurements taken from publication PMC4838364 (Nucleic Acids Research, 2016).
Values belong to the molecule of their own block, whether it stands above or below them.

B1: Hef from Thermoplasma acidophilum, wild-type (natural protein, Thermoplasma acidophilum DSM 1728, UniProt Q9HI46 1-508, looked up)
chain: MIIQPREYQLNVFKNSIGQNTLIVMPTGLGKTIIAAMFIEKFYGEKKRSLMVAPTKPLVLQHARTIADSTGISENEIGVFTGEIDAEERELIWVTKKIFVSTPQVVFNDMRSGILDITKFDLIIFDEAHRAVGNYAYVDIAQEYLKYKKKLIIGLTASPGSSREKIDEIMANLGISKVIAKTEMDEDVRKYVKTIDVKLIKIREPDGTKEIVNMIDAVMSKLLEPVKSSNFSIGRSRKDLVATMQKVINSAKEDRSLFQLVRRITAAIRLDYLKEYIETQGIDVALHYLEEMEKSQDPGIRRAISMLSSLDEFATLRTKLMLAADGYTNPKMEKTLSIMESNVHGNARAIVFTHYRITSDLLMDYIQKNGTSLKPVRFIGQADRGSDEGLSQDQQKKIIEDFKNNVYNVLIATSIAEEGLDIPDTDFVIFYEAVPSEIRYIQRKGRTGRSRNGQVYILVFENSRDMAYYYSSIRKVSRMTQTIEDLRQESGSDEKEEKSDVQKTIFDF
B2: PCNA from Thermoplasma acidophilum (natural protein, Thermoplasma acidophilum DSM 1728, UniProt Q9HJQ0 1-246, looked up)
chain: MIRLNLSVKNLKEITDLLSTIVSEAKFRVDENGMSVTAVDPAHVAMIRLEVPKEAFVEFHTDGQEEIALDIDRLKSVIRLASSSENVGITKDGEKLKFELGTINKSISLLDPSTIVTPKIPNITSEYYAVLKKSDFERGLRAAEDISDSIRFTLSQDGFKAYSHSESEESEMILPKDLITDMSCNTTIKSSYPLEYLLKFIKAISSTDSLKLSFRDDYPLSVEFYLDQNPGAKIKGLFLLAPRMEQ
B3: hsFANCM 1-17 wildtype peptide (peptide, UniProt Q8IYD8 1-17, looked up)
peptide: MSGRQRTLFQTWGSSIS

Legend:
[1] = target: Flag-FANCM PIP-box mutant (L8R/W12S), full length (human) (UniProt Q8IYD8); assay: proximity ligation
Sequence of Flag-FANCM PIP-box mutant (L8R/W12S), full length (human) (Q8IYD8 whole entry L8R/W12S): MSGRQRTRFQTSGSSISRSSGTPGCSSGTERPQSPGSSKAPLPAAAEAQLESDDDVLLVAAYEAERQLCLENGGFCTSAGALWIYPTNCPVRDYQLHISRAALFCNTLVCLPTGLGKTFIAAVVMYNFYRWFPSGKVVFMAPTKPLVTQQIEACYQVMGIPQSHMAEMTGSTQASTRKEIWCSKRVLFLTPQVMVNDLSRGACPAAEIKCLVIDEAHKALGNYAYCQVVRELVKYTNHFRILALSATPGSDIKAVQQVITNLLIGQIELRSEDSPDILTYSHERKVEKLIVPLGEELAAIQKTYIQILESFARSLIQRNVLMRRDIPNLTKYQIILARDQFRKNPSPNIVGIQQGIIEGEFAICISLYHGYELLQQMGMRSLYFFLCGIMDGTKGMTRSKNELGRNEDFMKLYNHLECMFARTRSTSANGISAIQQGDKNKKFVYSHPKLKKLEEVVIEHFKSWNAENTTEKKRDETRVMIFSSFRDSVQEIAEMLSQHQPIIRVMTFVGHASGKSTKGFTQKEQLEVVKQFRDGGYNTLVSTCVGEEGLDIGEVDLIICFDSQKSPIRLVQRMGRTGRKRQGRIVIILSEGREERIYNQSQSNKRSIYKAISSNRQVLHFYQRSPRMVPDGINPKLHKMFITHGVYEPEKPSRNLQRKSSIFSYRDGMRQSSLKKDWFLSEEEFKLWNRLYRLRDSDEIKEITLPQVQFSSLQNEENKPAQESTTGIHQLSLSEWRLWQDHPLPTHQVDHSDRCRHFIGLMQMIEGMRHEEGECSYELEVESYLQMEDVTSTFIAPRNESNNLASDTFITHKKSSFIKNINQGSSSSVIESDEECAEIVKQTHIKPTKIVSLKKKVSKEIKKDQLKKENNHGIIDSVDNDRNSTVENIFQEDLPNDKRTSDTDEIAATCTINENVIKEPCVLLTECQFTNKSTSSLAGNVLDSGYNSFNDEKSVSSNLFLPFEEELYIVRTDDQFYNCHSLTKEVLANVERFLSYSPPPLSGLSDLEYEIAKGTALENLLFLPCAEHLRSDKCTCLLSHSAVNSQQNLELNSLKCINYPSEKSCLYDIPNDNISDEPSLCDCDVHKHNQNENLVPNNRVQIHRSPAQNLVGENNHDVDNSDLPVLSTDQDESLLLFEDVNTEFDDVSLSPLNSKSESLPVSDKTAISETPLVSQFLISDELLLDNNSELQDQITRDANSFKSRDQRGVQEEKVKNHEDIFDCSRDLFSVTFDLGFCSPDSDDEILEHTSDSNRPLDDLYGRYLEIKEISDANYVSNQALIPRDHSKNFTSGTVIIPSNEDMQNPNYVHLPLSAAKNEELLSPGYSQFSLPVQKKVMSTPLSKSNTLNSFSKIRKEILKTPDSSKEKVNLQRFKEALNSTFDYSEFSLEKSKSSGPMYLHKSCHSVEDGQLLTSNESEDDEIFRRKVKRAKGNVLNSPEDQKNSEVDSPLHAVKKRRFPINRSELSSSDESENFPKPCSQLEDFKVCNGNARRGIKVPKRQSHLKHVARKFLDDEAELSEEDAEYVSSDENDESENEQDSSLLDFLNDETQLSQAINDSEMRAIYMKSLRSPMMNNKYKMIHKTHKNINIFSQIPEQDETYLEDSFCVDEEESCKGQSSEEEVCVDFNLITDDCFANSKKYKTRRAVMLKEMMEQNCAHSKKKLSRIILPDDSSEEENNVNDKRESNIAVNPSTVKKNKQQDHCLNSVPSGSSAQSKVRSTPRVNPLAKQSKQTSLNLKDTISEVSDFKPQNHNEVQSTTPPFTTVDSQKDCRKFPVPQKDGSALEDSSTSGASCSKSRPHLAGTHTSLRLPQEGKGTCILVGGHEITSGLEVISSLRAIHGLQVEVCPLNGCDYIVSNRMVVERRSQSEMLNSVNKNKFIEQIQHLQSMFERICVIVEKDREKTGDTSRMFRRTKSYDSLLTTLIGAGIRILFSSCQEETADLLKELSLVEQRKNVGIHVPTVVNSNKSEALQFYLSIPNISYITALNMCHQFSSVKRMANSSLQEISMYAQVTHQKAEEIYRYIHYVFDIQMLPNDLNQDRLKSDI

[2] = target: B2; assay: SEC
[3] = target: B2; assay: SAXS
[4] = target: the molecule itself; assay: SEC
[5] = target: B1; assay: ITC
[6] = target: Human PCNA, recombinant (human, UniProt P12004 1-261); assay: ITC
Sequence of Human PCNA, recombinant (P12004 whole entry): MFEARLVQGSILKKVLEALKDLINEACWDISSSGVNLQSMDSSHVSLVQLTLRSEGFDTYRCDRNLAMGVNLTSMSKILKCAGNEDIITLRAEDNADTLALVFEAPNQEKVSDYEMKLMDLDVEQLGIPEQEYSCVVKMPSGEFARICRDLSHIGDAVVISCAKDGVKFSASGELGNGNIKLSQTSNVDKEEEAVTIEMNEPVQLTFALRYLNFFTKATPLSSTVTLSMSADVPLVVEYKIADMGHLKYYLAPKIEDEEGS

PLA signal relative to wildtype FANCM (HU-treated cells) [1]: 50%
Molecule: PCNA, endogenous (from UniProt P12004 1-261) (natural protein)

Molecule: B1
stoichiometry N [2]: 3 taHef monomers per taPCNA homotrimer | stoichiometry N [3]: 3 taHef per taPCNA trimer

Molecule: B2
stoichiometry N [4]: 3 | Kd [5]: 1 µM

Molecule: B3
Kd [6]: 13 µM
